The values below come from patent US20120316071A1 (published 2012).

Changes are numbered by the printed parent chain. Numbers in names are those of the source.

Test [1] addresses T1, Recombinant Human DLL4 (delta-like protein 4) (human, UniProt Q9NR61 27-524).
T1 construct: also called rHuman DLL4; Delta-like 4
Description: ELISA, Fab on coated DLL4, absorbance at 450 nm.

Test [2] addresses T1, Recombinant Human DLL4 (delta-like …). The test is described as follows: ECL (MSD) binding assay, Fab on immobilised recombinant human DLL4.
For test [3] the target is unchanged. The test is described as follows: ELISA on coated DLL4, Fab at 25 nM (2-fold serial dilution). A general note: ELISA stands for enzyme-linked immunosorbent assay.
Test [4] shares this target. Description: ELISA on coated DLL4, Fab at 12.5 nM (2-fold serial dilution).
Test [5] has the same target. The test is described as follows: ELISA on coated DLL4, Fab at 50 nM (2-fold serial dilution).
For test [6] the target is unchanged. Description: ELISA on coated DLL4, Fab at 100 nM (2-fold serial dilution).
For test [7] the target is unchanged. The test is described as follows: ELISA on coated DLL4, Fab at 6.25 nM (2-fold serial dilution).
Test [8] shares this target. The test is described as follows: ELISA on coated DLL4, Fab at 3.125 nM (2-fold serial dilution).
In test [9] the target is T2, rHuman HGF R/c-MET/Fc Chimera, CF (R&D Systems Cat#358-MT/CF) (human, UniProt P08581 25-932).
T2 construct: Bought recombinant protein; also called HGF R/Fc; hepatocyte growth factor receptor; Fc part of the bought chimera not given
Description: ECL (MSD) multispot binding assay, antigen spotted on plate, 20 nM Fab.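 Further: purified Fab incubated 1 h at 20 °C on antigen-spotted plate, bound Fab revealed with TAG detection antibody, ECL read, antigen signal divided by same-well blank, ratio ≥4 counted as hit.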

In test [10] the target is T3, rHuman Erythropoietin R/Fc Chimera, CF (R&D Systems Cat#963-ER) (human, UniProt P19235 25-250).
T3 construct: Bought recombinant protein; also called EPO R; EPO R/Fc; Fc part of the bought chimera not given
T3 sequence (looked up): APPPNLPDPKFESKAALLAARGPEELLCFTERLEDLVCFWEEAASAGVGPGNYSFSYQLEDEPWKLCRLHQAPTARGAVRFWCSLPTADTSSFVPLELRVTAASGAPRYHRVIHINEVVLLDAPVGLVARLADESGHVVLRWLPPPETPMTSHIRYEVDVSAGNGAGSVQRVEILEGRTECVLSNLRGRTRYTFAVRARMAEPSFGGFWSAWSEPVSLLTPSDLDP
The description is as above.

The target in test [11] is T4, rHuman P-Cadherin/Fc Chimera, CF (R&D Systems Cat#861-PC) (human, UniProt P22223 108-654).
T4 construct: Bought recombinant protein; Fc part of the bought chimera not given
Described as above.

Test [12] addresses T5, Recombinant Human DLL4 (R&D Systems Cat#1506-D4/CF) (human, UniProt Q9NR61 27-524).
T5 construct: Bought recombinant protein; also called delta-like protein 4; rHuman DLL4
The description is as above.

The target of test [13] is T6, rHuman IGF-1 sR, (IGF-1 sR), CF (R&D Systems Cat#391-GR) (human, UniProt P08069 31-932).
T6 construct: Bought recombinant soluble receptor; also called insulin-like growth factor-1 soluble receptor
The test is described as above.

The target of test [14] is T7, rHuman CD44/Fc Chimera, CF (R&D Systems Cat#3660-CD) (human, UniProt P16070 21-220).
T7 construct: Bought recombinant protein; Fc part of the bought chimera not given
The test is described as above.

The target in test [15] is T8, rHuman Notch-1/Fc Chimera, CF (R&D Systems Cat#3647-TK) (human, UniProt P46531 19-526).
T8 construct: Bought recombinant protein; Fc part of the bought chimera not given
The description is as above.

Test [16] addresses T9, rHuman EGF R/Fc Chimera, CF (R&D Systems Cat#344-ER) (human, UniProt P00533 25-645).
T9 construct: Bought recombinant protein; also called epidermal growth factor receptor; Fc part of the bought chimera not given
The test is described as above.

Test [17] addresses T10, rHuman ErbB2/Fc Chimera, CF (R&D Systems Cat#1129-ER) (human, UniProt P04626 23-652).
T10 construct: Bought recombinant protein; also called human epidermal growth factor 2 receptor; Fc part of the bought chimera not given
The test is described as above.

Test [18] deals with T11, rHuman P-Cadherin/Fc Chimera, CF (R&D Systems Cat#861-PC) (human, UniProt P22223 108-654).
T11 construct: Bought recombinant protein; Fc part of the bought chimera not given
The test is described as follows: ECL multispot (MSD) assay, antigen spotted on plate, 20 nM Fab.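 Further: purified Fab bound to plate-spotted antigen for 1 h at 20 °C, labelled detection antibody added, ratio of antigen ECL signal to same-well blank, ratio ≥4 counted as binder.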

In test [19] the target is T12, Recombinant Human DLL4 (R&D Systems Cat#1506-D4/CF) (human, UniProt Q9NR61 27-524).
T12 construct: Bought recombinant protein; also called delta-like protein 4; rHuman DLL4
The test is described as above.

Test [20] deals with T13, rHuman Erythropoietin R/Fc Chimera, CF (R&D Systems Cat#963-ER) (human, UniProt P19235 25-250).
T13 construct: Bought recombinant protein; also called EPO R; EPO R/Fc; Fc part of the bought chimera not given
T13 sequence (looked up): T3 sequence (looked up)
The description is as above.

Test [21] has as its target T14, rHuman EGF R/Fc Chimera, CF (R&D Systems Cat#344-ER) (human, UniProt P00533 25-645).
T14 construct: Bought recombinant protein; also called epidermal growth factor receptor; Fc part of the bought chimera not given
The description is as above.

The target in test [22] is T15, rHuman ErbB2/Fc Chimera, CF (R&D Systems Cat#1129-ER) (human, UniProt P04626 23-652).
T15 construct: Bought recombinant protein; also called human epidermal growth factor 2 receptor; Fc part of the bought chimera not given
The description is as above.

Test [23] addresses T16, rHuman IGF-1 sR, CF (R&D Systems Cat#391-GR) (human, UniProt P08069 31-932).
T16 construct: Bought soluble receptor; also called insulin-like growth factor-1 soluble receptor
The test is described as above.

The target of test [24] is T17, rHuman CD44/Fc Chimera, CF (R&D Systems Cat#3660-CD) (human, UniProt P16070 21-220).
T17 construct: Bought recombinant protein; Fc part of the bought chimera not given
Described as above.

For test [25], the target named is T18, rHuman Notch-1/Fc Chimera, CF (R&D Systems Cat#3647-TK) (human, UniProt P46531 19-526).
T18 construct: Bought recombinant protein; Fc part of the bought chimera not given
Described as above.

T2 sequence (P08581 25-932, change not shown): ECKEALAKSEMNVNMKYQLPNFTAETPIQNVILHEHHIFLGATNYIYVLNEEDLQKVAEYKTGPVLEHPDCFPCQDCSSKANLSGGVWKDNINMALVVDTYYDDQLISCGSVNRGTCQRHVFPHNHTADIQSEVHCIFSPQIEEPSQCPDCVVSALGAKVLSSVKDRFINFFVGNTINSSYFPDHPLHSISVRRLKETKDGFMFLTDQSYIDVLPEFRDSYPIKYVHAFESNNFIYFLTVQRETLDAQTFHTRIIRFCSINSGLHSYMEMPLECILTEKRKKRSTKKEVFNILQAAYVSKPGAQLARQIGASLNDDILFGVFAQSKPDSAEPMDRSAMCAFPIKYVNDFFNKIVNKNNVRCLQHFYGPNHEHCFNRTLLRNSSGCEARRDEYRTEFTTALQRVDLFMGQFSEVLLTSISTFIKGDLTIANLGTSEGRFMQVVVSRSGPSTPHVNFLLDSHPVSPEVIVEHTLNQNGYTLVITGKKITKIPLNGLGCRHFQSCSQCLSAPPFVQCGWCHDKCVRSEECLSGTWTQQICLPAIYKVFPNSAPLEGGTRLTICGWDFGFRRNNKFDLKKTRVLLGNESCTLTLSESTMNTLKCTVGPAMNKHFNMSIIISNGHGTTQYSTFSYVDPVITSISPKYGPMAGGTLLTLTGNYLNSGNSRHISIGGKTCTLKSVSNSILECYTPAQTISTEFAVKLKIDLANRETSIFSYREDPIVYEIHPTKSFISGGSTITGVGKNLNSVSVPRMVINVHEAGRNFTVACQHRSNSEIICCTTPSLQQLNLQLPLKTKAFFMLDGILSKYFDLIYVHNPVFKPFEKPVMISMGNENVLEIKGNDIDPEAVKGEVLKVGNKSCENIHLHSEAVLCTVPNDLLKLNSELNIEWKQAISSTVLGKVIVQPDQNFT

B1: Fab VH5-51_IGHD5-18*01>3_IGHJ4*01 G100K/G104T (KT) & V3-4_IGLJ1*01 R56D (Fab, V domains shown)
VH: EVQLVQSGAEVKKPGESLKISCKGSGYSFTSYWIGWVRQMPGKGLEWMGIIYPGDSDTRYSPSFQGQVTISADKSISTAYLQWSSLKASDTAMYYCARRKYSYTYDYFDYWGQGTLVTVSS
VL: QTVVTQEPSFSVSPGGTVTLTCGLSSGSVSTSYYPSWYQQTPGQAPRTLIYSTNTDSSGVPDRFSGSILGNKAALTITGAQADDESDYYCVLYMGSGISYVFGTGTKVTVL
notes: Fab; also called H:KT & L:R56D
As for B1, the “ELISA signal” value in test [1] is 0.19. Further, in test [2], the “ECL signal” value was determined as 87400.

B2: Fab VH5-51_IGHD5-18*01>3_IGHJ4*01 G100K/G104T (KT) & V3-4_IGLJ1*01 R56G (Fab, V domains shown)
VH: B1 VH
VL: B1 VL with D56G
notes: Fab; also called H:KT & L:R56G
For the molecule B2, the “ELISA signal” value in test [1] was 0.19. Further, the “ECL signal” value in test [2] amounted to 93700.

B3: Fab VH5-51_IGHD5-18*01>3_IGHJ4*01 G100K/G104T (KT) & V3-4_IGLJ1*01 R56A (Fab, V domains shown)
VH: B1 VH
VL: B1 VL with D56A
notes: Fab; also called H:KT & L:R56A
Consider B3, for which the ELISA signal was found to be 0.227 in test [3]; 0.212 in test [4]; 0.239 in test [5]; 0.27 in test [1]; 0.251 in test [6]; 0.2 in [7]. For the same molecule, the ELISA signal in [8] came to 0.213. Further, the “ECL signal” value in test [2] came to 83900.

B4: Fab VH3-23_IGHD2-21*01>3_IGHJ6*01 H100E/S108P/Y113G/Y110G & V2-13_IGLJ2*01 (Fab, V domains shown)
VH: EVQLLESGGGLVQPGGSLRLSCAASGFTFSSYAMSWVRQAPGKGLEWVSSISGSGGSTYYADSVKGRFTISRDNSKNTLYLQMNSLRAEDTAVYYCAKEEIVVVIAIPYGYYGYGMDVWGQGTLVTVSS
VL: SSELTQDPAVSVALGQTVRITCQGDSLRSYYASWYQQKPGQAPVLVIYGKNNRPSGIPDRFSGSSSGNTASLTITGAQAEDEADYYCNSRDSSGNHLVVFGGGTKLTVL
notes: Fab made in E. coli: VH joined to CH1 (with His and Flag tags, plasmid A) and VL to lambda CL (plasmid E); also called EPG Y110G
In the case of B4, the “ECL signal/blank ratio” value amounted to 1 in [9]; 2 in test [10]; 0.8 in test [11]; 1.3 in test [12]; 1.4 in test [13]; 1 in test [14]. The figures for the “ECL signal/blank ratio” value in test [15], in test [16] and in test [17] were 1.6, 1.5 and 1.3, respectively.

B5: Fab VH3-23_IGHD2-21*01>3_IGHJ6*01 H100E/S108P/Y113G T58A & V2-13_IGLJ2*01 (Fab, V domains shown)
VH: EVQLLESGGGLVQPGGSLRLSCAASGFTFSSYAMSWVRQAPGKGLEWVSSISGSGGSAYYADSVKGRFTISRDNSKNTLYLQMNSLRAEDTAVYYCAKEEIVVVIAIPYYYYGYGMDVWGQGTLVTVSS
VL: B4 VL
notes: Tested as a Fab made in E. coli; also called EPG T58A
Take B5: the “ECL signal/blank ratio (read-out not given)” value in test [18] was 36.9; in test [19] it was 2.3; in test [20], 158; in [21], 9.6; in test [22], 15.9; in test [23] it was 1.2. Further, the “ECL signal/blank ratio (read-out not given)” value in test [24] came to 1.5.

B6: Fab VH3-23_IGHD2-21*01>3_IGHJ6*01 H100E/S108P/Y113G A61T & V2-13_IGLJ2*01 (Fab, V domains shown)
VH: B5 VH with A58T, A61T
VL: B4 VL
notes: Tested as a Fab made in E. coli; also called EPG A61T
B6: the “ECL signal/blank ratio (read-out not given)” value in [18] came out at 20.9; in [25], 2.9; in test [19], 2.6; in test [21], 7.1; in test [22], 11.2; in test [23], 1.6. The “ECL signal/blank ratio (read-out not given)” value in test [24] was determined as 2.

B7: Fab VH3-23_IGHD2-21*01>3_IGHJ6*01 H100E/S108P/Y113G/Y111E & V2-13_IGLJ2*01 (Fab, V domains shown)
VH: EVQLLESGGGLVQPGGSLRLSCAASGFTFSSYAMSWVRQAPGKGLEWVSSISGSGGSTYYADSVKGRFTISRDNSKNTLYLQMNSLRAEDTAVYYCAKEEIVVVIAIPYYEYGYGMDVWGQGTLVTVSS
VL: B4 VL
notes: Fab made in E. coli: VH joined to CH1 (with His and Flag tags, plasmid A) and VL to lambda CL (plasmid E); also called EPG Y111E
In the case of B7, the “ECL signal/blank ratio” value turned out to be 2.2 in test [9]; 2.3 in test [11]; 1.5 in test [12]; 1.4 in test [13]; 1.1 in test [14]; 1.5 in [15]. The entries for the “ECL signal/blank ratio” value in [16] and in [17] were 1.4 and 1.5, respectively.

B8: Fab VH3-23_IGHD2-21*01>3_IGHJ6*01 H100E/S108P/Y113G/Y111P & V2-13_IGLJ2*01 (Fab, V domains shown)
VH: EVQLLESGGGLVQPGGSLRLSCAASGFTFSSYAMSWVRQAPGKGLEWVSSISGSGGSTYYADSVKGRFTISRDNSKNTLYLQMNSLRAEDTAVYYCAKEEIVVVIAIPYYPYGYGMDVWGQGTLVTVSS
VL: B4 VL
notes: Fab made in E. coli: VH joined to CH1 (with His and Flag tags, plasmid A) and VL to lambda CL (plasmid E); also called EPG Y111P
With B8, the “ECL signal/blank ratio” value in test [9] stood at 1.7; in [10], 1.9; in test [11], 1.3; in test [12], 1.4; in test [13], 1.2; in test [14], 1.3. Also, the entries for the “ECL signal/blank ratio” value in test [15], in test [16] and in test [17] were 1.6, 1.5 and 1.6, respectively.

B9: Fab VH3-23_IGHD2-21*01>3_IGHJ6*01 H100E/S108P/Y113G D62A & V2-13_IGLJ2*01 (Fab, V domains shown)
VH: B5 VH with A58T, D62A
VL: B4 VL
notes: Tested as a Fab made in E. coli; also called EPG D62A
Turning to B9, the “ECL signal/blank ratio (read-out not given)” value was determined as 45.8 in test [18]; 2.4 in test [19]; 244 in test [20]; 11.6 in test [21]; 21.7 in test [22]; 1.4 in test [23]. Also, the “ECL signal/blank ratio (read-out not given)” value in test [24] was found to be 2.
